Laboratory results from PMC7218866, “Impact of Self-Assembled Monolayer Design and Electrochemical Factors on Impedance-Based Biosensing”.

Biological target: lysozyme (UniProt P00698 19-147)
Assay: electrochemical impedance spectroscopy (EIS); dense aptamer SAM (no MCH dilution), ferricyanide reporter; RCT change significant from 8 nM (LOD), up to 12%; 1x HBS, pH 7.4, redox reporter (ferricyanide or methylene blue) in solution; aptamer on gold electrode; temperature not stated
Details: protein: commercial

Sequence of lysozyme (P00698 19-147): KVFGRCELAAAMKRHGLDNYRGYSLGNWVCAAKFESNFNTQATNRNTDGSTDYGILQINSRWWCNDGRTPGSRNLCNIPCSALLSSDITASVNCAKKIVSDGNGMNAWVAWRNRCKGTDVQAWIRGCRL

B1: lysozyme aptamer (thiolated) (ssDNA)
DNA: AGCAGCACAGAGGTCAGATGGCAGGTAAGCAGGCGGCTCACAAAACCATTCGCATGCGGC
modifications: 5' thiol-C6 (SH-C6), immobilized on gold in SAM
B1: binds.
